The values that follow come from patent US20110081663A1 (KYOTO UNIVERSITY, published 2011).

This test has as its target molecular probe of the formula (11) (SEQ ID NO. 11), exendin-4(1-39)-Lys40 with the Lys40 side chain labeled …. Description: ex vivo autoradiography of pancreas sections of MIP-GFP mice after i.v. injection; radioactivity co-localised with the GFP signal of beta-cells.

B1: GLP-1 receptors of the pancreatic beta-cells (MIP-GFP mice) (receptor)
chain: GPRPQGTTVSLSETVQKWREYRRQCQRFLTEAPLLATGLFCNRTFDDYACWPDGPPGSFVNVSCPWYLPWASSVLQGHVYRFCTAEGLWLHKDNSSLPWRDLSECEESKRGERNFPEEQLLSLYIIYTVGYALSFSALVIASAILVGFRHLHCTRNYIHLNLFASFILRALSVFIKDAALKWMYSTAAQQHQWDGLLSYQDSLGCRLVFLLMQYCVAANYYWLLVEGVYLYTLLAFSVFSEQRIFKLYLSIGWGVPLLFVIPWGIVKYLYEDEGCWTRNSNMNYWLIIRLPILFAIGVNFLIFIRVICIVVSKLKANLMCKTDIKCRLAKSTLTLIPLLGTHEVIFAFVMDEHARGTLRFIKLFTELSFTSFQGLMVAILYCFVNNEVQMEFRKCWERWRLEHLNIQRDCSMKPLKCPTSSVSSGATVGSSVYAATCQSSYS
notes: whole, on cells; Endogenous receptor in mouse pancreas; also called glucagon-like peptide-1 receptor
Turning to B1, the binding result was “binds”.
